Biological target: HLA-DR2(15) (human)
Test: competition assay against a standard peptide on purified HLA class II

B1: B. lentus subtilisin epitope peptide, amino acids 160-174 (peptide, UniProt P29600 160-174, looked up)
peptide: SYPARYANAMAVGAT
notes: Synthetic 15-mer; also called peptide position #54
  IC50: 0.127 µM
